Data from patent publication US5853984, “Use of nucleic acid ligands in flow cytometry” (NeXstar Pharmaceuticals, Inc.).

Key:
[1] = target: T1, Human neutrophil elastase (HNE) (Homo sapiens) (UniProt P08246); assay: flow; details: HNE on polystyrene beads, 2 mM MgCl2, 1% BSA, room temperature
T1 sequence: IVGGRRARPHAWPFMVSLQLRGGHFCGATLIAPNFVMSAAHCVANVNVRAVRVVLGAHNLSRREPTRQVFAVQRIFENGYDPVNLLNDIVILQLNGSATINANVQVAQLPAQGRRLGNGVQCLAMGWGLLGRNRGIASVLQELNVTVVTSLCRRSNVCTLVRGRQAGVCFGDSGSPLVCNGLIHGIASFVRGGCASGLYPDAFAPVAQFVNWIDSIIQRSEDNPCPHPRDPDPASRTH

[2] = target: T1, Human neutrophil elastase (HNE) (Homo sapiens); assay: filter; details: 150 mM NaCl, 100 mM Tris-HCl pH 7.0, 2 mM MgCl2, 6 mM KCl, 0.02% HSA, 37 C
[3] = target: T2, Human neutrophil elastase (HNE) (Homo sapiens, UniProt P08246 P08246:30-267); assay: flow; HNE on polystyrene beads, 2 mM MgCl2, 1% BSA, room temperature; details: tags: Athens Research and Technology, salt-free lyophilized solid; label: fluorescein; G-quartet with duplex ends
Description: Beads (0.5% solids) in acetate buffer were coated with HNE (0.5 μg/cm² of bead surface area) for 30 min and then washed and suspended (approx. 5×10⁵ beads/μL) in acetate buffer containing 2% BSA. HNE coated beads were stored at 4° C. until use.
Staining of HNE coated beads was achieved by incubating beads (approx. 3×10⁵) with varying concentrations of fluoresceinated oligonucleotides in 50 μL of binding buffer consisting of 100 mM Tris-HCl (pH 7.0), 0.15M NaCl, 6 mM KCl, 2 mM MgCl₂ and 1% BSA for 30 min at room temperature. The beads were then washed with 2 mL of the same buffer and suspended in 0.5 mL for analysis. Staining with mouse anti-HNE was accomplished in the same method except that bound antibody was detected by a second step fluorescein isothiocyanate (FITC) labeled antibody (X56-FITC). […] Analysis was performed on a FACScan™ flowcytometer (Becton Dickinson). The sensitivity of the flowcytometer was adjusted so that the autofluorescence of the unstained beads was located in the middle of the first decade.

[4] = target: T2, Human neutrophil elastase (HNE); assay: filter; 150 mM NaCl, 100 mM Tris-HCl pH 7.0, 2 mM MgCl2, 6 mM KCl, 0.02% HSA, 37 C; details: tags: Athens Research and Technology, salt-free lyophilized solid; label: fluorescein; G-quartet with duplex ends
[5] = target: T2, Human neutrophil elastase (HNE); assay: flow; second-step staining with streptavidin-phycoerythrin; affinity lower than direct fluorescence measurement; details: tags: Athens Research and Technology, salt-free lyophilized solid; label: biotin (streptavidin-phycoerythrin); G-quartet with duplex ends
[6] = two internal fluoresceins in extension
[7] = tail-to-tail dimer via symmetric 3'-3' linker (X) with ethylene glycol linkers and two fluoresceins (LFLXLFL)

GNCACAGTCGACGATACTGCGTGGGTTGGGGCGGGTAGGGCCAGCAGTCTCGTNGACTGRGTC [DNA-EXT]
Kd [1, 6]: 48 nM
Kd [2, 6]: 12 nM

TAGCGATACTGCGTGGGTTGGGGCGGGTAGGGCCAGCAGTCTCGTNNNNNNNTGCTCTGACGACCGGGATGGGCGGGGTTGGGTGCGTCATAGCGAT [DNA-DIMER-TT]
Kd [1, 7]: 20 nM
Kd [2, 7]: 3 nM

B1: DNA-LNK-5F (ssDNA)
DNA: TAGCGATACTGCGTGGGTTGGGGCGGGTAGGGCCAGCAGTCTCGT
modifications: 5' fluorescein followed by two hexaethylene glycol spacers [5' fluorescein + two hexaethylene glycol spacers (n1-n3, left out) before T1]
Kd [3]: 110 nM
Kd [4]: 12 nM

B2: biotinylated DNA ligand (ssDNA)
DNA: TAGCGATACTGCGTGGGTTGGGGCGGGTAGGGCCAGCAGTCTCGTT
modifications: biotin attached to 3' end through a linker
binding result [5]: binds
